Patent US20240029824A1 (University of Washington, published 2024)

Legend:
Assay in all cases: individually purified chains mixed 1:1:1, heat annealed, SEC
[1] = molecular target: T1, DHT03_3arm chain B (B21, SEQ ID NO: 73)
T1 construct: separately expressed with an N- or C-terminal 6xHis-tag
T1 chain: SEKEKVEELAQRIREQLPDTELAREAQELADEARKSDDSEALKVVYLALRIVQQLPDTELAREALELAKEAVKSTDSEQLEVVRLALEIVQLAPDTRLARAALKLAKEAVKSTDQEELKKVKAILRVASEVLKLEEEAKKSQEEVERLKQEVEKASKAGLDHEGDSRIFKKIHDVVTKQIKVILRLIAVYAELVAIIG
Description: (§1) To test this idea, an equimolar amount of individually purified A, B, and C of DHT03_2arm_A21/B21/C were mixed together and run through an annealing protocol (see Methods) to allow these interfaces to reassemble in the presence of all components. A monodisperse SEC peak was observed belonging to the ABC heterotrimer state as confirmed by overlap with its SEC co-expressed tricistronic version (FIG. 3d). To explore the use of this approach for building, four different repeat protein fusions to chain C were annealed in the same manner and all four 3-arm heterotrimers were successfully reconstituted. […] The successful reconstitution of these ABC assemblies, following the independent expression and purification of each chain and explicit mixing at a 1:1:1 ratio, enables their use in conjunction with other de novo proteins to mediate the specific assembly of multi-component assemblies. Independent expression also has considerable advantages over tricistronic expression from a gene synthesis perspective as DNA becomes much more difficult and expensive to synthesize with increasing construct size.
(§2) To test whether the DHT03 components could properly assemble in the presence of other helical hairpin containing chains, as would be the case for more complex assemblies, we chose DHD131, a designed helical hairpin unit heterodimer containing buried hydrogen bond networks¹². […] We evaluated simultaneous reconstitution of DHD131 and DHT03_3arm_A21/B21/C82, since the size difference between the two constructs (if correctly assembled) should be detected by SEC. We separately expressed and individually purified the two chains of the heterodimer and the three chains of the heterotrimer, mixed them at a 1:1:1:1:1 ratio, and carried out annealing and SEC as described above.

[2] = molecular target: T2, DHT03_3arm_A21/B21/C53 chain C
T2 chain: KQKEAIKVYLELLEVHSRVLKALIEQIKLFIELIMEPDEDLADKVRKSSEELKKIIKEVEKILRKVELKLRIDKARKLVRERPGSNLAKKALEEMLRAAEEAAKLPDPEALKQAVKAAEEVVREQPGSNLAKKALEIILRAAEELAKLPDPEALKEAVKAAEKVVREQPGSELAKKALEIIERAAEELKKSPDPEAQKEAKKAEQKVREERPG
Description: as §1, §2

[3] = molecular target: T3, DHT03_3arm_A21/B21/C59 chain C
T3 chain: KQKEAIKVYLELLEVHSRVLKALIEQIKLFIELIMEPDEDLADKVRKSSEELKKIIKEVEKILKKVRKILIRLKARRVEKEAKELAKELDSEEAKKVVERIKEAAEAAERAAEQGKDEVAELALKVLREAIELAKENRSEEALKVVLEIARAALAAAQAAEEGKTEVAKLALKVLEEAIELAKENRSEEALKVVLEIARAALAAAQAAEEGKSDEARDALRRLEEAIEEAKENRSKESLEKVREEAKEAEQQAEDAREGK
Description: as §1, §2

[4] = molecular target: T4, DHT03_3arm_A21/B21/C62 chain C
T4 chain: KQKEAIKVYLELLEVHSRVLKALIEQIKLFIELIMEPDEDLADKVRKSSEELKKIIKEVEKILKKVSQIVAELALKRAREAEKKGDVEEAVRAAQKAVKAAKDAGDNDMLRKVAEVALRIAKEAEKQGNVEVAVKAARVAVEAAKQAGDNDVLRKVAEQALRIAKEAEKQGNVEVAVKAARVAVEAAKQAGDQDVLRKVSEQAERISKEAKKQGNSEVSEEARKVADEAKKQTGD
Description: as §1, §2

[5] = molecular target: T5, DHT03_3arm_A21/B21/C82 chain C
T5 construct: also called chain C DHR82 fusion; chain C of C3-DHT03-01-DHR82 and C4-DHT03-01-DHR82
T5 chain: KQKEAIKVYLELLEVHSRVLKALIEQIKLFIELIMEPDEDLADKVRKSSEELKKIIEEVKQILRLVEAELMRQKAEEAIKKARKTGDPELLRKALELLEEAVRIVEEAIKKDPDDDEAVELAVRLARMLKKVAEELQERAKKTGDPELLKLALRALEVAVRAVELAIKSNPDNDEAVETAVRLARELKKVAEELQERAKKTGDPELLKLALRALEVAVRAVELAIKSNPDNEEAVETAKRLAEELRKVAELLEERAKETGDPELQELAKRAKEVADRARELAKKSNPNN
Description: as §1, §2

Measured: binding result

B1: DHT03_3arm chain A (A21, SEQ ID NO: 72) (designed binder)
chain: SEKEKVEELAQRIREQLPDTELAREAQELADEARKSDDSEALKVVYLALRIVQQLPDTELAREALELAKEAVKSTDSEALKVVYLALRIVQQLPDTELARLALELAKKAVEMTAQEVLAIAKAALKAAQAFPNTELAELMLRLAEVAARVMKELERNDEEIKKSDELDDASLLADIVRLLAEIIKLWKILVEVSDVMLKLIS
notes: separately expressed with an N- or C-terminal 6xHis-tag
binds: all assays above
